The source of these data is US20140212439A1 (Daiichi Sankyo, published 2014).

In assay [1] the target is human EPHA2 expressed on cells (human, UniProt P29317 24-976). The assay is described as follows: cell-based or functional assay.
Another assay concerns the target T1, bovine serum albumin (bovine, UniProt P02769 25-607).
T1 construct: Control protein in the ELISA; also called BSA
The assay is described as follows: ELISA on plate-coated BSA. Here is the method:
A solution of an EPHA2 extracellular region polypeptide (manufactured by R&D Systems, Inc., #3035-A2-100) or bovine serum albumin (in the description below and the figures, abbreviated to “BSA”) as a control diluted to 1 μg/ml with PBS was dispensed at 100 μl/well onto an immunoplate (manufactured by Nunc, #442404) and incubated overnight at 4° C. to thereby adsorb the protein to the plate.
The plate was incubated at room temperature for 1 hour. Then, the solution in the wells was removed, and the wells were washed twice with Diluting Buffer. Goat anti-Mouse IgG, Peroxidase Conjugated (manufactured by Millipore (Chemicon), #AP181P) diluted 1000 times with Diluting Buffer was added at 100 μl/well and incubated at room temperature for 1 hour. The solution in the wells was removed, and the wells were washed twice with Diluting Buffer. Then, a color reaction was performed with stirring by the addition of OPD Color Developing Solution at 100 μl/well. After color development, the color reaction was terminated by the addition of 1 M HCl at 100 μl/well. The absorbance at 490 nm was measured using a plate reader (FIG. 7).
(In general: ELISA stands for enzyme-linked immunosorbent assay.)

T1 sequence (P02769 25-607 limits assumed): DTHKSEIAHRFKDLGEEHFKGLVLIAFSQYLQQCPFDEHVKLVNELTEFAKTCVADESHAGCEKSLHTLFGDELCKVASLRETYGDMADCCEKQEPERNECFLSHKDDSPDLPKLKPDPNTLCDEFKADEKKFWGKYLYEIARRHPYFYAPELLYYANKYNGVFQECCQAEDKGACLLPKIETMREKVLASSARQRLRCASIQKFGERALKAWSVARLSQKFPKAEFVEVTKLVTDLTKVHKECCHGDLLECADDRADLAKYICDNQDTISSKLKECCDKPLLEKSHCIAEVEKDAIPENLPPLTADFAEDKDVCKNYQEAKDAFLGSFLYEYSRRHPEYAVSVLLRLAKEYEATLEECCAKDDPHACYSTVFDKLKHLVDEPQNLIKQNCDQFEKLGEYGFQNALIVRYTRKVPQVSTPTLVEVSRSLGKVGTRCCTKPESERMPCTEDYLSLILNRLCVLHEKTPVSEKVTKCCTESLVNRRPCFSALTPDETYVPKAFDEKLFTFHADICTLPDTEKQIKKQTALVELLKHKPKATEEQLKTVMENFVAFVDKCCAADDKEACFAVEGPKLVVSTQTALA
human EPHA2 expressed on cells, sequence (P29317 24-976 limits assumed): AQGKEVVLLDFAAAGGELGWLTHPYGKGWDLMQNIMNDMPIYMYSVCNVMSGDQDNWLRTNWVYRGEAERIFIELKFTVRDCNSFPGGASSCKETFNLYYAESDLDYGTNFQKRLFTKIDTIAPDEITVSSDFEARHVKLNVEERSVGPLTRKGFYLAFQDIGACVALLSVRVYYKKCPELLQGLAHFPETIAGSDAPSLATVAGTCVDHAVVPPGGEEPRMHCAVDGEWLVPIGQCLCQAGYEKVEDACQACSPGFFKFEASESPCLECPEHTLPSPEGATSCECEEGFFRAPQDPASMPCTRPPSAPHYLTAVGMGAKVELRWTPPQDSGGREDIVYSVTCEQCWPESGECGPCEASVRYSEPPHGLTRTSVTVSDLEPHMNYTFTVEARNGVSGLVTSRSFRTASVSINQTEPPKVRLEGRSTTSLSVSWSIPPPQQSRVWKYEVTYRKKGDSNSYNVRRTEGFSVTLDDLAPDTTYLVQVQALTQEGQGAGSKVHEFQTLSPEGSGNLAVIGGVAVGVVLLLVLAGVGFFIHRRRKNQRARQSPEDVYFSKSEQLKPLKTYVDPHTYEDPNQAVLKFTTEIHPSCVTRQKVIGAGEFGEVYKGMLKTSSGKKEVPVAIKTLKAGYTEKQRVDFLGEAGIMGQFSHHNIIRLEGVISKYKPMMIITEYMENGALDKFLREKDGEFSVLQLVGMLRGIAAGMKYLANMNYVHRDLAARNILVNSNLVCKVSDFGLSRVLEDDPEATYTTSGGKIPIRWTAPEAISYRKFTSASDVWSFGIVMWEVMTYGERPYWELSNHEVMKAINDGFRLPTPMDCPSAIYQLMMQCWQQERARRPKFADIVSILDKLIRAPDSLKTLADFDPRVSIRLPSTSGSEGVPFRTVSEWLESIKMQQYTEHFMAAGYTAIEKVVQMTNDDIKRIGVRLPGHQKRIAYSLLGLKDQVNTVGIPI

B1: SH348-1 (antibody produced by hybridoma SH348-1, FERM BP-10836) (antibody, mouse IgG2a, kappa, V domains shown)
VH: QIQLVQSGPELKKPGETVKISCKASGYTFTHYSMHWVKQAPGKGLKWMGWINTYTGEPTYADDFKGRFAFSLETSASTAFLQINNLKNEDTATYFCATYYRYERDFDYWGQGTTLTVSS
VL: DVLMTQSPLSLPVSLGDQASISCRSSQSIVHSNGNTYLEWYLQKPGQSPKLLIYKVSNRFSGVPDRFSGSGSGTDFTLRISRVEAEDLGVYYCFQGSHVPYTFGGGTKLEIKR
modifications: N-terminal pyroglutamic acid
notes: Mouse monoclonal IgG2a, kappa; The ends of the cDNAs are primer-derived; also called bSH348-1 (biotinylated form)
As to B1, in assay [1], the “EPHA2 protein level after 24 hours, EPHA2/β-actin band intensity relative to mIgG2a (100%), with cross-linking antibody” value was 69% and the “EPHA2 protein level after 24 hours, EPHA2/β-actin band intensity relative to mIgG2a (100%), without cross-linking antibody” value turned out to be 70%. Besides, in the assay with bovine serum albumin, the binding result was “no binding (tested: up to 125 µg/ml)”.

B2: SH357-1 (antibody produced by hybridoma SH357-1, FERM BP-10837) (antibody, mouse IgG2a, kappa, V domains shown)
VH: QIQLVQSGPELKKPGETVKISCKASGYTFIDYSMHWVKQAPGKGLKWMGWINTYTGEPTYSDDFKGRFAFSLETSASTAYLQISNLKNEDTASYFCATYYRYERDFDYWGQGTTLTVSS
VL: DVLMTQTPLSLPVSLGDQASISCRSSQSIVHSSGITYLEWYLQKPGQSPKLLIYKVSNRFSGVPDRFSGSGSGTDFTLKISRVEAEDLGVYYCFQGSHVPYTFGGGTKLEIKR
notes: Mouse monoclonal IgG2a, kappa; also called bSH357-1 (biotinylated form)
In the case of B2, in the assay with bovine serum albumin, the binding result is “no binding (tested: up to 125 µg/ml)”.
